Assay results: patent US20210238304A1 (EISAI R AND D MANAGEMENT, published 2021)

Legend:
[1] = target: T1, human mesothelin (recombinant, soluble) (human, UniProt Q13421 296-598); experiment: SPR BIAcore, captured mAb, mesothelin analyte
[2] = target: T1, human mesothelin (recombinant, soluble); experiment: SPR BIAcore, parental mAb captured, mesothelin analyte
[3] = target: human mesothelin expressed on cells (human, UniProt Q13421 37-598); experiment: cell-based or functional assay
[4] = target: T2, human mesothelin (recombinant, soluble) (human, UniProt Q13421 296-598, limits assumed); experiment: SPR BIAcore T-100, captured mAb, mesothelin 0.16-100 nM, single-cycle kinetics
T2 construct: Analyte in BIAcore, coat in ELISA (CHO-MT40 mesothelin), biotinylated on Octet tips; also called MSLN; CHO-MT40 mesothelin
T2 sequence (Q13421 other isoform, or with tags, fused parts or gaps limits assumed): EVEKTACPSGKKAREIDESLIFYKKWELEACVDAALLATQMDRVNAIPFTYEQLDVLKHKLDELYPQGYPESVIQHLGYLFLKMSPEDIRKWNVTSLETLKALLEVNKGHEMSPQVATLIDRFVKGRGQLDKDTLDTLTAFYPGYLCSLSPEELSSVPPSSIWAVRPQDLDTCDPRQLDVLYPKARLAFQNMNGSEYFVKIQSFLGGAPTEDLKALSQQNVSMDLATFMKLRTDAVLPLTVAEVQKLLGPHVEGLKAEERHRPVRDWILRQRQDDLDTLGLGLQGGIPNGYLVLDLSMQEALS
Description: (§1) Binding affinity: Binding measurements were performed in HBS-P+ buffer on a BIAcore T-100 instrument. Antibodies were diluted to 1 μg/mL in HBS-P+. Samples were centrifuged at 14,000×g for 5 min at room temperature and then supernatants were transferred to a new 1.5 mL BIAcore tube and capped. […] Anti-human antibody capture chip was prepared according to the manufacturer's protocol using a CMS chip with immobilization wizard. Final capture antibody levels were 8000-9000RU, in HBS-P+.
(§2) Antibodies were captured on flow cells 2-4 by sequential injections of individual ligand solutions for 90 sec at 10 μL/min. Analyte injection was done in a single-cycle kinetics manner by sequential injections of analyte solutions from low to high concentration for 240 sec each at 30 μL/min. Detection was 2-1, 3-1, 4-1. Double-referencing was performed by a sequence of identical ligand capture injections, followed by 5 buffer-only injections for 240 sec each, dissociation for 1800 sec, and regeneration as above. All ligands were analyzed for binding to mesothelin in duplicate. Kinetic analysis was performed using BIAEvaluations software using a 1:1 Langmuir fitting model. On-rate, off-rate, and affinity constants were averaged from duplicate runs.

rat mesothelin = target: T3, rat mesothelin (rat, UniProt Q9ERA7 298-600, limits assumed); experiment: SPR BIAcore, captured mAb, mesothelin analyte
T3 sequence (looked up): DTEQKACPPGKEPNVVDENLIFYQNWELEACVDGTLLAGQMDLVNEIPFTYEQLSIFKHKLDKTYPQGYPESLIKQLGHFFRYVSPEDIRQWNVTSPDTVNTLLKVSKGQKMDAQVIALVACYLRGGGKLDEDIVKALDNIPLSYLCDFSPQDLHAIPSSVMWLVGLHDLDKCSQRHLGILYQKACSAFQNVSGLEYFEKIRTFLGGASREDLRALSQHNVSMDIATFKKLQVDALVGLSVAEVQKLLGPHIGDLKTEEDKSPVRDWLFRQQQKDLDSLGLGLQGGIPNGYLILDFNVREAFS
Description: as §1, §2

[5] = target: T2, human mesothelin (recombinant, soluble); experiment: SPR BIAcore, affinity against anetumab as reference
Description: as §1, §2

[6] = target: T2, human mesothelin (recombinant, soluble); experiment: SPR BIAcore, run 4
Description: as §2, with “Anti-mesothelin antibody binding affinity to mesothelin was measured by BIAcore (BIAcore T-100, GE healthcare, #1426075), using a series S CMS chip. Antibody concentrations were adjusted to 1 μg/mL and mesothelin (50 μg) to 100 nM in 1×HBS-P+ buffer (GE Healthcare). Anti-human antibody capture chip was prepared according to the manufacturer's protocol using a CMS chip with immobilization wizard. Final capture antibody levels were 8000-9000 RU, in HBS-P+. Chip was prepared for assay with five cycles of 300 sec buffer injection followed by 30 sec regeneration, all at 30 μL/min across all four flow cells. Antibodies” for “Antibodies”

[7] = target: cynomolgus monkey mesothelin (cynomolgus monkey); experiment: SPR BIAcore T-100, captured mAb, mesothelin analyte, single-cycle kinetics
Description: as §1, §2

T1 sequence (Q13421 other isoform, or with tags, fused parts or gaps): as the sequence (Q13421 other isoform, or with tags, fused parts or gaps limits assumed) above
Sequence of human mesothelin expressed on cells (Q13421 other isoform, or with tags, fused parts or gaps): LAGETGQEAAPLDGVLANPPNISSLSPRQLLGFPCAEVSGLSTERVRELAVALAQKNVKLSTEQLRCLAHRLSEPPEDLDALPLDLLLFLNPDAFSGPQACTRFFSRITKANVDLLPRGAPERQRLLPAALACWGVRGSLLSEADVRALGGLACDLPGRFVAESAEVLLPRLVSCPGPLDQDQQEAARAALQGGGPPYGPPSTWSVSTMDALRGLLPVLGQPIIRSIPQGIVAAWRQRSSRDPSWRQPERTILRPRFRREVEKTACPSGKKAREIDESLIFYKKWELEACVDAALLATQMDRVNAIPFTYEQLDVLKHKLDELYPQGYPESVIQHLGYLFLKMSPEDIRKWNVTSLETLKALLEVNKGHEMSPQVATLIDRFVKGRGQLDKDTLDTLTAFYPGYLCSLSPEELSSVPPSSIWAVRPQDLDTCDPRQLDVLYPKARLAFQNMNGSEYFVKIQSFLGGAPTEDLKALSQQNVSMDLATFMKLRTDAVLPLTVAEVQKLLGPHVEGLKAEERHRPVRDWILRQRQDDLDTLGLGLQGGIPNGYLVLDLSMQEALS

B1: 33O11 (rabbit-human chimeric anti-human mesothelin antibody) (antibody, V domains shown)
VH: QSVEESGGRLVTPGTPLTLTCTVSGISLSSDAISWVRQAPGKGLEYIGIINGGGNTYYASWAKGRFTISKTSTTVDLKITSPTTEDTATYFCARGIQHGGGNSDYYYYGMDLWGPGTLVTVSS
VL: EVLMTQTPSSVSAAVGDTVTIKCQASQSISSVLSWYQQKPGQPPKLLIYLASTLASGVPSRFSGSRSGTEFTLTISDLECDDAATYYCQTNYGTSSSNYGFAFGGGTEVVVK
Question: Which results are given for B1?
Answer: Kd [1]: 0.335 nM; koff [1]: 0.000668 s⁻¹; kon [1]: 1.99e+06 M⁻¹ s⁻¹

B2: 237N18 (rabbit-human chimeric anti-human mesothelin antibody) (antibody, V domains shown)
VH: QSLEESGGRLVAPGTPLTLTCTVSGFSLSSYHMSWVRQAPGEGLEWIGGITAMSRTYYASWAKGRFTISKTSTTVHLKITSPTTEDTATYFCAREPGFVSNIWGPGTLVTVSL
VL: AVVLTQTASPVSGVVGGTVTIKCQASQNIYSNLAWYQQKPGQRPKLLMYDASTLASGVPSRFKGSGSGTQFTLTISDLECADAATYYCQSISSVDNNVFGGGTEVVVK
Question: With B2 as the binder, how does the Kd [1] read?
Answer: 3.38 nM

Question: What about the koff [1] of the same binder?
Answer: 0.00428 s⁻¹

Question: And the kon [1]?
Answer: 1.27e+06 M⁻¹ s⁻¹

B3: 111B10 zu (humanized, CDR-grafted HC1-LC1) (antibody, V domains shown)
VH: EVQLVESGGGLVQPGGSLRLSCAASGFSLNNYAMSWVRQAPGKGLEWIGSISTGGLAFYANWAKGRFTISRDNSKNTLYLQMNSLRAEDTAVYYCARNGGGSYIFYYFDLWGQGTLVTVSS
VL: DIQMTQSPSSLSASVGDRVTITCQASQSISSYLSWYQQKPGKAPKLLIYSASTLASGVPSRFSGSGSGTDFTLTISSLQCEDAATYYCQSYYDIGTSTFGGGTKVEIKR
Question: How did the Kd [2] turn out when B3 was run?
Answer: 6.5 nM

Question: And the koff [2]?
Answer: 0.003 s⁻¹

Question: What about the kon [2] of the same binder?
Answer: 510000 M⁻¹ s⁻¹

B4: BAY 94-9343 (anetumab ravtansine) (antibody, human IgG1, lambda, V domains shown)
VH: QVELVQSGAEVKKPGESLKISCKGSGYSFTSYWIGWVRQAPGKGLEWMGIIDPGDSRTRYSPSFQGQVTISADKSISTAYLQWSSLKASDTAMYYCARGQLYGGTYMDGWGQGTLVTVSS
VL: DIALTQPASVSGSPGQSITISCTGTSSDIGGYNSVSWYQQHPGKAPKLMIYGVNNRPSGVSNRFSGSKSGNTASLTISGLQAEDEADYYCSSYDIESATPVFGGGTKLTVLG
modifications: SPDB-DM4 on lysines, DAR 3.7 for the whole antibody, positions not given
Question: For B4, which “EC50 (read off the curve): % killing of NCI-N87 cells, BAY 94-9343 alone” value [3] is on record?
Answer: ~0.8 nM

Question: What about the “EC50 (read off the curve): % killing of NCI-N87 cells, BAY 94-9343 with 3 uM unconjugated anetumab” value [3] of the same binder?
Answer: ~0.8 nM

B5: anetumab (antibody, human IgG1, lambda, V domains shown)
VH: B4 VH
VL: B4 VL
Question: Which results are given for B5?
Answer: Kd [4]: 7.26 nM; koff [4]: 0.00112 s⁻¹; kon [4]: 168000 M⁻¹ s⁻¹; binding result (rat mesothelin): no binding (tested: 100 nM highest analyte concentration)

B6: Xi-383I18(AuF) (antibody, V domains shown)
VH: SQSVEESGGRLVTPGTPLTLTCTVSGFSLSSYAMGWVRQAPGEGLEWIGTISTGGITYYASWAKGRFTISKTSTTVDLKITSPTTEDTATYFCARVGSSGYLFYFFNLWGQGTLVTVSS
VL: VFELTQTPSPVSAAVGGTVTIRCQASQNIKSYLAWYQQKPGQPPKLLIYEASILASGVSSRFKGSGSGTEFTLTISDLECADAATYYCQSYYAASSNAFGGGTEVVVK
Question: Which results are given for B6?
Answer: Kd [1]: 0.28 nM; koff [1]: 0.000281 s⁻¹; kon [1]: 1.01e+06 M⁻¹ s⁻¹

B7: 345A12-HC15-LC4 (antibody, human IgG1, kappa, V domains shown)
VH: QVQLVESGGGVVQPGRSLRLSCAASGIDLSSYAMSWVRQAPGKGLEWIGVIDISGNRFYADWVKGRFTISRDNSKNTLYLQMSSLRAEDTAVYYCARVDSRAWGPFNLWGQGTLVTVSS
VL: DYQMTQSPSSLSASVGDRVTITCQASQSIFSYLAWYQQKPGKAPKLLIYDASDLASGVPSRFSGSGSGTDFTLTISSLQCEDAATYYCQQGYTRSDVDNAFGGGTKVEIKR
notes: Humanized rabbit antibody, human IgG1/kappa, unpaired Cys80 in the light chain; also called zu345A12-HC15-LC4
Question: For B7, which “fold higher affinity than anetumab” value [5] is on record?
Answer: 40 fold

Question: And the Kd [6]?
Answer: 0.0779 nM

Question: And the koff [6]?
Answer: 0.000112 s⁻¹

Question: And the kon [6]?
Answer: 1.44e+06 M⁻¹ s⁻¹

Question: And the Kd [4]?
Answer: 0.195 nM

Question: What about the koff [4] of the same binder?
Answer: 0.000285 s⁻¹

Question: What about the kon [4] of the same binder?
Answer: 1.46e+06 M⁻¹ s⁻¹

Question: Does B7 bind (rat mesothelin)?
Answer: no binding (tested: 100 nM highest analyte concentration)

Question: And the Kd [7]?
Answer: 88.6 nM

Question: What about the koff [7] of the same binder?
Answer: 0.000751 s⁻¹

Question: And the kon [7]?
Answer: 10500 M⁻¹ s⁻¹

B8: 201C15 zu (humanized, CDR-grafted HC1-LC1) (antibody, V domains shown)
VH: QVQLVESGGGLVQPGGSLRLSCSASGIDLSSYAMGWVRQAPGKGLEYIGTINIGGRVYYASWAKGRFTISRDNSKNTLYLQMNSLRAEDTAVYYCARYYNGGSYDIWGQGTLVTVSS
VL: DIQMTQSPSTLSASVGDRVTITCQASESIYRVLAWYQQKPGKAPKLLIYDTSTLASGVPSRFSGSGSGTEFTLTISSLQCDDAATYYCQGGYYADSYGIAFGGGTKVEIKR
Question: With B8 as the binder, how does the Kd [2] read?
Answer: 4.2 nM

Question: What about the koff [2] of the same binder?
Answer: 0.0011 s⁻¹

Question: And the kon [2]?
Answer: 310000 M⁻¹ s⁻¹

B9: 346C6 zu (humanized, CDR-grafted HC1-LC1) (antibody, V domains shown)
VH: EVQLVESGGGLVQPGGSLRLSCAASGFSLSSYAMIWVRQAPGKGLEWIGTISTGGITYYASWAKGRFTISRDNSKNTLYLQMNSLRAEDTAVYYCARGGYAASSAYYLPYYFDLWGQGTLVTVSS
VL: DIQMTQSPSSLSASVGDRVTITCQSSQSVYNNNNLAWYQQKPGKVPKLLIYLASTLASGVPSRFSGSGSGTDFTLTISSLQCEDAATYYCLGGCDDDADTFAFGGGTKVEIKR
Question: Which results are given for B9?
Answer: Kd [2]: 8.9 nM; koff [2]: 0.093 s⁻¹; kon [2]: 1.33e+07 M⁻¹ s⁻¹
